One block for each binder: values may come before it.
Key:
cyno FcRn (biotinylated) [1] = target: T1, cyno FcRn (biotinylated) (cynomolgus, UniProt Q8SPV9 24-297; Q8SPW0 21-119, limits assumed, biotinylated (site not stated)); experiment: SPR, Biacore 8K+, biotinylated cyno FcRn captured on SA chip, pH 6.0, bivalent analyte fit; pH 6.0
T1 construct: also called Cynomolgus FcRn; cynomolgus monkey FcRn
Method: (§1) The Nanobody® VHH-Fc protein constructs (FcRn antagonists) were characterized by affinity determination for human FcRn and cyno FcRn at pH 6.0 and pH 7.4 on the Biacore 8K+ instrument. For affinity measurements, ^{˜}200-400 of biotinylated human or cyno FcRn was captured on a Series S Sensor Chip SA. The Nanobody® VHH-Fc fusion proteins were injected at 9 different concentrations (between 0.5 and 1500 nM) and allowed to associate for 120 s at 30 μL/min and dissociate for 600 s.
(§2) The data could not be fitted with the 1:1 Langmuir dissociation model, and a Bivalent Analyte fitting model was used instead due to biphasic on-rate behaviour observed during analysis. The FcRn affinities obtained for TP061 were in line with the published data (see, e.g., Vaccaro, C., Zhou, J., Ober, R. et al., “Engineering the Fc region of immunoglobulin G to modulate in vivo antibody levels”, Nat. Biotechnol. 23, 1283-1288 (2005)).

[2] = target: T2, human FcRn (biotinylated) (human, UniProt P61769 21-119, biotinylated (site not stated)); experiment: SPR, Biacore 8K+, biotinylated human FcRn captured on SA chip, pH 6.0, bivalent analyte fit; pH 6.0
T2 construct: also called neonatal Fc receptor; FcRP
Method: as §1, §2

cyno FcRn (biotinylated) [3] = target: T1, cyno FcRn (biotinylated); experiment: SPR, Biacore 8K+, biotinylated cyno FcRn captured on SA chip, pH 6.0, bivalent analyte fit
Method: as §1, §2

cyno FcRn (biotinylated) [4] = target: T1, cyno FcRn (biotinylated); experiment: SPR, Biacore 8K+, biotinylated cyno FcRn captured on SA chip, pH 7.4, bivalent analyte fit
Method: as §1, §2

[5] = target: T2, human FcRn (biotinylated); experiment: SPR, Biacore 8K+, biotinylated human FcRn captured on SA chip, pH 6.0, bivalent analyte fit
Method: as §1, §2

[6] = target: T2, human FcRn (biotinylated); experiment: SPR, Biacore 8K+, biotinylated human FcRn captured on SA chip, pH 7.4, bivalent analyte fit
Method: as §1, §2

T1 sequence (Q8SPV9 24-297 limits assumed, chain 1 of 2): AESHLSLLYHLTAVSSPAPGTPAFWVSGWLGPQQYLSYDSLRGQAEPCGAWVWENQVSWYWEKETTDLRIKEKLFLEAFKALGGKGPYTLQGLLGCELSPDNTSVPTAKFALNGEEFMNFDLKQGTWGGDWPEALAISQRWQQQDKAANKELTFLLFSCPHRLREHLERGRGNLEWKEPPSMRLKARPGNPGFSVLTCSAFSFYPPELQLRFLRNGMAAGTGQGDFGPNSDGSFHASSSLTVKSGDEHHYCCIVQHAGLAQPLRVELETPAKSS
T1 sequence (Q8SPW0 21-119 limits assumed, chain 2 of 2): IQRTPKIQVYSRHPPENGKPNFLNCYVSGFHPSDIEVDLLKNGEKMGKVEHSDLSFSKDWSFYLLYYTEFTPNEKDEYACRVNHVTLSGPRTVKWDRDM

Kd (cyno FcRn (biotinylated) [1]): 27.5 nM
Kd [2]: 17.2 nM
B1: T-0263-00_TP061 (other)
chain: DKTHTCPPCPAPELLGGPSVFLFPPKPKDTLYITREPEVTCVVVDVSHEDPEVKFNWYVDGVEVHNAKTKPREEQYNSTYRVVSVLTVLHQDWLNGKEYKCKVSNKALPAPIEKTISKAKGQPREPQVYTLPPSRDELTKNQVSLTCLVKGFYPSDIAVEWESNGQPENNYKTTPPVLDSDGSFFLYSKLTVDKSRWQQGNVFSCSVMHEALKFHYTQKSLSLSPGK
notes: Symmetrical (homodimeric) Fc-only control made without knob-in-hole; also called control FcRn antagonist; IgG1 Fc YTE-KF Fc domain without Nanobody VHH

Kd (cyno FcRn (biotinylated) [3]): 0.683 nM
Kd (cyno FcRn (biotinylated) [4]): 12.5 nM
Kd [5]: 0.873 nM
Kd [6]: 14 nM
B2: T-0263-00_TP069 (Fc fusion)
chain 1: DKTHTCPPCPAPELLGGPSVFLFPPKPKDTLYITREPEVTCVVVDVSHEDPEVKFNWYVDGVEVHNAKTKPREEQYNSTYRVVSVLTVLHQDWLNGKEYKCKVSNKALPAPIEKTISKAKGQPREPQVYTLPPCRDELTKNQVSLWCLVKGFYPSDIAVEWESNGQPENNYKTTPPVLDSDGSFFLYSKLTVDKSRWQQGNVFSCSVMHEALKFHYTQKSLSLSPGGGGGSGGGGSGGGGSGGGGSGGGGSGGGGSGGGGSEVQLVESGGGVVQPGGSLRLSCAASGFTFSSYAMYWVRQAPGKGLEWVSAISSGGGSTDYADSVKGRFTISRDNSKNTLYLQMNSLRPEDTALYYCAADTLYTSLTSYSYWGQGTLVTVSS
chain 2: DKTHTCPPCPAPELLGGPSVFLFPPKPKDTLYITREPEVTCVVVDVSHEDPEVKFNWYVDGVEVHNAKTKPREEQYNSTYRVVSVLTVLHQDWLNGKEYKCKVSNKALPAPIEKTISKAKGQPREPQVCTLPPSRDELTKNQVSLSCAVKGFYPSDIAVEWESNGQPENNYKTTPPVLDSDGSFFLVSKLTVDKSRWQQGNVFSCSVMHEALKFHYTQKSLSLSPG
notes: also called C-terminal fusion construct; human IgG1 Fc YTE-KF (knob)-35GS-T0263018B11(W100cS) + Fc YTE-KF (hole)

Kd (cyno FcRn (biotinylated) [3]): 0.541 nM
Kd (cyno FcRn (biotinylated) [4]): 11.2 nM
Kd [5]: 0.692 nM
Kd [6]: 10.3 nM
B3: T-0263-00_TP067 (Fc fusion)
chain 1: DVQLVESGGGVVQPGGSLRLSCAASGFTFSSYAMYWVRQAPGKGLEWVSAISSGGGSTDYADSVKGRFTISRDNSKNTLYLQMNSLRPEDTALYYCAADTLYTSLTSYSYWGQGTLVTVSSDKTHTCPPCPAPELLGGPSVFLFPPKPKDTLYITREPEVTCVVVDVSHEDPEVKFNWYVDGVEVHNAKTKPREEQYNSTYRVVSVLTVLHQDWLNGKEYKCKVSNKALPAPIEKTISKAKGQPREPQVYTLPPCRDELTKNQVSLWCLVKGFYPSDIAVEWESNGQPENNYKTTPPVLDSDGSFFLYSKLTVDKSRWQQGNVFSCSVMHEALKFHYTQKSLSLSPG
chain 2: B2 chain 2
notes: also called N-terminal fusion construct; T0263018B11(E1D,W100cS)-human IgG1 Fc YTE-KF (knob) + Fc YTE-KF (hole)

— patent publication US20250034260A1 (Sanofi, published 2025)
